Measurements published in US9580508B2, “Bispecific EGFR/c-Met antibodies” (Janssen Biotech, Inc., priority 2012, dated 2017).
Substitutions are numbered along the chain they refer to. “Also recorded” adds a separate entry of the source. Where two headings read alike, the source gives them in different places.

Key:
[1] = system: H292-HGF human lung cancer xenograft; assay: H292-HGF human lung cancer xenograft: bispecific molecule versus other EGFR and c-Met inhibitors; settings: mouse, in vivo
Method: (§1) The H292-HGF cells were maintained in vitro in RPMI1640 medium supplemented with fetal bovine serum (10% v/v), and L-glutamine (2 mM) at 37° C. in an atmosphere of 5% CO2 in air. The cells were routinely subcultured twice weekly by trypsin-EDTA treatment. The cells growing in an exponential growth phase were harvested and counted for tumor inoculation.
(§2) Each mouse was inoculated subcutaneously at the right flank region with H292-HGF tumor cells (2×10^6) in 0.1 ml of PBS with Cultrex (1:1) for tumor development. The treatments were started when the mean tumor size reached 139 mm^3. […] The date of tumor cell inoculation was denoted as day 0.
(§3) Before commencement of treatment, all animals were weighed and the tumor volumes were measured. Since the tumor volume can affect the effectiveness of any given treatment, mice were assigned into groups using randomized block design based upon their tumor volumes. […] The randomized block design was used to assign experimental animals to groups. First, the experimental animals were divided into homogeneous blocks according to their initial tumor volume. Secondly, within each block, randomization of experimental animals to treatments was conducted.
(§4) At the time of routine monitoring, the animals were checked for any effects of tumor growth and treatments on normal behavior, such as mobility, visual estimation of food and water consumption, body weight gain/loss (body weights were measured twice weekly), eye/hair matting and any other abnormal effect.
(§5) The endpoint was whether tumor growth can be delayed or tumor bearing mice can be cured. Tumor size was measured twice weekly in two dimensions using a caliper, and the volume was expressed in mm^3 using the formula: V=0.5 a×b^2 where a and b are the long and short diameters of the tumor, respectively. The tumor size was then used for calculations of both T-C and T/C values. T-C was calculated with T as the time (in days) required for the mean tumor size of the treatment group to reach 1000 mm^3, and C was the time (in days) for the mean tumor size of the control group to reach the same size. The T/C value (in percent) was an indication of antitumor efficacy; T and C were the mean tumor volume of the treated and control groups, respectively, on a given day. Complete tumor regression (CR) is defined as tumors that are reduced to below the limit of palpation (62.5 mm^3) Partial tumor regression (PR) is defined as tumors that are reduced from initial tumor volume. A minimum duration of CR or PR in 3 or more successive tumor measurements is required for a CP or PR to be considered durable.
(§6) Animals for which the body weight loss exceeded 20%, or for which the mean tumor size of the group exceeds 2000 mm^3 were euthanized. The study was terminated after two weeks of observation after the final dose.
(§7) Statistical analyses of difference in tumor volume among the groups were evaluated using a one-way ANOVA followed by individual comparisons using Games-Howell (equal variance not assumed). All data were analyzed using SPSS 18.0. p<0.05 was considered to be statistically significant.

[2] = system: H1975 cells expressing human HGF; assay: H1975-HGF xenograft tumor efficacy; format: in vivo, nude mice; settings: H1975-HGF NSCLC, day 16; mAbs 10 mg/kg BIWx3wk, erlotinib 50, afatinib 15 mg/kg QDx21d
H1975 cells = assay: H1975 xenograft tumor efficacy; format: in vivo, nude mice; settings: H1975 NSCLC, day 18, mAbs 10 mg/kg BIWx3wk, erlotinib 50, afatinib 15 mg/kg QDx21d
NCI-H3255 cells = assay: cells; settings: Homo sapiens, […] HGF
Method: NCI-H3255 and HCC-827 cells were plated as described above in “Inhibition of Human Tumor Cell Growth or Viability by Antibodies”. […] Some wells were left untreated with either HGF or antibodies as controls. Cells were incubated at 37° C., 5% CO2 for 72 hours, then viable cells were detected using CellTiter-Glo® reagent (Promega), and data were analyzed as described above in “Inhibition of Human Tumor Cell Growth (NCI-H292 growth and NCI-H322 growth assay)”.

[3] = system: H292-HGF human lung cancer xenograft
Method: as §1, §2, §3, §4, §5, §6, §7

[4] = system: NCI-H292 cells expressing human HGF; assay: H292-HGF xenograft tumor efficacy with four bispecific FN3 molecules; format: in vivo, SCID Beige mice; settings: 25 mg/kg three times per week
Method: One week after implantation, mice were stratified into groups with equivalent tumor volumes (mean tumor volume=77.9+/−1.7 mm^3) Mice were dosed three times per week with the bispecific molecules and tumor volumes were recorded twice weekly.

[5] = mouse, in vivo, ip
Method: SCID Beige mice were subcutaneously inoculated with NCI-H292 cells expressing human HGF (2.0×10^6 cells in Cultrex (Trevigen) in a volume of 200 μL) on the dorsal flank of each animal. Tumor measurements were taken twice weekly until tumor volumes ranged between 150-250 mm^3. Mice were then given a single i.p. dose of bispecific EGFR/c-Met molecules (linked to an albumin binding domain to increase half-life) or PBS vehicle. At 6 h or 72 h after dosing, tumors were extracted and immediately frozen in liquid nitrogen. […] Tumors were weighed, cut into small pieces, and lysed in Lysing Matrix A tubes (LMA) containing RIPA buffer with HALT protease/phosphatase inhibitors (Pierce), 50 mM sodium fluoride (Sigma), 2 mM activated sodium orthovanadate (Sigma), and 1 mM PMSF (MesoScale Discovery). Lysates were removed from LMA matrix and centrifuged to remove insoluble protein. The soluble tumor protein was quantified with a BCA protein assay and diluted to equivalent protein levels in tumor lysis buffer. Phosphorylated c-Met, EGFR and ERK were measured using assay plates from MesoScale Discovery (according to Manufacturer's protocol and as described above).

NCI-H292 cells = assay: HGF-induced NCI-H292 cell proliferation; format: cell-based, human; settings: read-out: H292-HGF Proliferation inhibition in HGF-induced H292 cells (IC50)
Source text: The proliferation assay was completed using different combinations EGFR and c-Met binding FN3 domains either as a mixture or linked in a bispecific format. […] This confirmed that the avidity effect observed at the level of the receptors (FIG. 4 and FIG. 5) translates into an improvement in inhibiting cell signaling (Table 12) and cell proliferation (Table 13).
Select bispecific EGFR/c-Met molecules were characterized for their affinity to both EGFR and c-Met, their ability to inhibit EGFR and c-Met autophosphorylation, and their effect on proliferation of HGF cells. Binding affinity of the bispecific EGFR/c-Met molecules to recombinant EGFR and/or c-Met extracellular domain was further evaluated by surface Plasmon resonance methods using a Proteon Instrument (BioRad) according to protocol described in Example 3.

EGFR = target: T1, EGFR (Homo sapiens, UniProt P00533); assay: Inhibition of EGFR phosphorylation in NCI-H441 cells; format: cell-based
T1 construct: endogenous in cells; host or cells: NCI-H441
Method: NCI-H292, NCI-H441, or NCI-H596 cells were plated in 96 well plates in RPMI medium containing 10% FBS. 24 hours later, medium was replaced with serum free RPMI. […] Cells were treated for 1 h with the monospecific or bispecific molecules and then stimulated with EGF, HGF, or a combination of EGF and HGF for 15 minutes at 37° C., 5% CO2. Cells were lysed with MSD Lysis Buffer and cell signaling was assessed using appropriate MSD Assay plates, according to manufacturer's instructions, as described above.

## C#Cc1cccc(Nc2ncnc3cc(OCCOC)c(OCCOC)cc23)c1 [erlotinib]
[1]
  Tolerability / body weight loss: More severe body weight loss
[2]
  % TGI (day of study); compared to PBS vehicle: 20 (16) %
H1975 cells
  % TGI (day of study); compared to PBS vehicle: 9 (18) %
NCI-H3255 cells; NCI-H3255, NCI-H3255, low attachment culture
  IC50: 47.1 nM
NCI-H3255 cells; NCI-H3255, NCI-H3255, standard 2D culture
  IC50: 122 nM

## CN(C)C/C=C/C(=O)Nc1cc2c(Nc3ccc(F)c(Cl)c3)ncnc2cc1O[C@H]1CCOC1 [afatinib]
[2]
  % TGI (day of study); compared to PBS vehicle: 29 (16) %
H1975 cells
  % TGI (day of study); compared to PBS vehicle: 57 (18) %
H1975 cells; listed as Afatinib
  % TGI (day of study); compared to PBS vehicle: 57%

## C[C@@H](Oc1cc(-c2cnn(C3CCNCC3)c2)cnc1N)c1c(Cl)ccc(F)c1Cl [crizotinib, reference compound]
[3]; day 7 (start of treatment)
  Tumor volume (mm^3): 140 ± 9 mm^3
[3]; mouse, in vivo
  Antitumor activity / response: no antitumor activity
[3]; tumor growth delay vs vehicle
  T − C (days) at 1000 mm^3: -1 days
[1]
  Tolerability / body weight loss: More severe body weight loss

B1: ECB39: bispecific FN3 with albumin binding domain: P53A1R5-17v2/P114AR7P94-A3, SEQ ID NO: 121 (protein)
chain: MLPAPKNLVVSEVTEDSARLSWADPHGFYDSFLIQYQESEKVGEAIVLTVPGSERSYDLTGLKPGTEYTVSIYGVHNVYKDTNMRGLPLSAIFTTAPAPAPAPAPLPAPKNLVVSRVTEDSARLSWTAPDAAFDSFWIRYFEFLGSGEAIVLTVPGSERSYDLTGLKPGTEYVVNIMGVKGGKISPPLSAIFTTAPAPAPAPAPLAEAKVLANRELDKYGVSDYYKNLINNAKTVEGVKALLDEILAALP
modifications: Bispecific EGFR/c-Met binding molecule
[4]
  Tumor growth inhibition: showed the most efficacy
[5]
  Tumor accumulation: significantly more tumor accumulation at 6 hours relative to the other molecules

B2: ECB38: bispecific FN3 with albumin binding domain: P54AR4-83v2/P114AR7P94-A3, SEQ ID NO: 120 (protein)
chain: B1 chain with A23D, H26W, G27A, D30E
modifications: Bispecific EGFR/c-Met binding molecule
[3]; 25 mg/kg, 3 times/week×3 weeks
  Mice in which the treatment was tolerated: 7 out of 10
[3]; day 7 (start of treatment)
  Tumor volume (mm^3): 137 ± 7 mm^3
[3]; day 9
  Tumor volume (mm^3): 142 ± 7 mm^3
[3]; day 13
  Tumor volume (mm^3): 83 ± 6 mm^3
[3]; day 16
  Tumor volume (mm^3): 44 ± 7 mm^3
[3]; day 20
  Tumor volume (mm^3): 30 ± 6 mm^3
[3]; day 27
  Tumor volume (mm^3): 21 ± 5 mm^3
[3]; day 30
  Tumor volume (mm^3): 23 ± 6 mm^3
[3]; mouse, in vivo
  Tolerability / body weight loss: Slight toxicity
[3]; mouse, in vivo, listed as bispecific EGFR/c-Met molecule
  Antitumor activity / response: complete tumor regression (CR) in all mice; also recorded: complete response
[4]
  Tumor growth inhibition: showed the most efficacy

B3: ECB106: bispecific FN3: P54AR4-83v23-(AP)5-P114AR7P94-A3v22, SEQ ID NO: 65 (protein)
chain: MLPAPKNLVVSEVTEDSARLSWDDPHAFYESFLIQYQESEKVGEAIVLTVPGSERSYDLTGLKPGTEYTVSIYGVHNVYKDTNIRGLPLSAIFTTAPAPAPAPAPLPAPKNLVVSRVTEDSARLSWTAPDAAFDSFWIRYFEFLGSGEAIVLTVPGSERSYDLTGLKPGTEYVVNILGVKGGKISPPLSAIFTT
modifications: bispecific EGFR/cMet binding molecule
NCI-H292 cells
  IC50: 484 nM

B4: ECB107: bispecific FN3: P54AR4-83v23-(AP)5-P114AR9P121-A6v2, SEQ ID NO: 66 (protein)
chain: B3 chain with L144V, K183S
modifications: bispecific EGFR/cMet binding molecule
NCI-H292 cells
  IC50: 2640 nM

B5: ECB109: bispecific FN3: P54AR4-83v23-(AP)5-P114AR7P95-C5v2, SEQ ID NO: 68 (protein)
chain: B3 chain with G178S, K183S
modifications: bispecific EGFR/cMet binding molecule
NCI-H292 cells
  IC50: 574 nM

B6: ECB108: bispecific FN3: P54AR4-83v23-(AP)5-P114AR9P122-A7v2, SEQ ID NO: 67 (protein)
chain: B3 chain with L144V, G145S, S146K, E148D, K183S
modifications: bispecific EGFR/cMet binding molecule
NCI-H292 cells
  IC50: 11400 nM

B7: ECB15: bispecific FN3: P54AR4-83v2-(AP)5-P114AR7P94-A3, SEQ ID NO: 57 (protein)
chain: B3 chain with H26W, I84M, L177M
modifications: bispecific EGFR/cMet binding molecule
NCI-H292 cells
  IC50: 23 nM

B8: ECB5: bispecific FN3: P53A1R5-17v2-(GGGGS)4-P114AR7P94-A3, SEQ ID NO: 54 (protein)
chain: MLPAPKNLVVSEVTEDSARLSWADPHGFYDSFLIQYQESEKVGEAIVLTVPGSERSYDLTGLKPGTEYTVSIYGVHNVYKDTNMRGLPLSAIFTTGGGGSGGGGSGGGGSGGGGSMLPAPKNLVVSRVTEDSARLSWTAPDAAFDSFWIRYFEFLGSGEAIVLTVPGSERSYDLTGLKPGTEYVVNIMGVKGGKISPPLSAIFTT
modifications: bispecific EGFR/cMet binding molecule
EGFR
  Fold decrease of IC50 for inhibition of EGFR phosphorylation, bispecific vs monospecific EGFR-binding FN3 domain: 30 fold
